In general, IC50 refers to the midpoint of a concentration-inhibition curve. Low values mean greater potency in that assay, high ones weaker potency in that assay.

Bridges are numbered along the chain shown (N, C = ends). Roman numbers before positions name the chains, in order. Where no end group is shown, it is not given here. [ ]: non-standard residue; d: D form. Phe(4-NH2) = Nc1ccc(C[C@H](N)C(=O)O)cc1

Experimental findings from patent publication US20150148520A1 (INDIANA UNIVERSITY RESEARCH AND TECHNOLOGY, published 2015) are described below.

Test [1] concerns the target T1, human insulin receptor (human, UniProt P06213 28-1382).
T1 construct: whole, on cells; Phosphorylation assay: receptor transfected HEK293 cells; also called Insulin
In words: SPA competition, [125I]-insulin, IR membranes. Here is the method: (§1) Non-specifically bound (NSB) radioactivity was measured in the wells with a four-fold concentration excess of “cold” native ligand than the highest concentration in test samples. Total bound radioactivity was detected in the wells with no competitor. Percent specific binding was calculated as following: % Specific Binding=(Bound-NSB/Total bound-NSB)×100. IC50 values were determined by using Origin software (OriginLab, Northampton, Mass.).

Test [2] has as its target T2, human IGF-1 receptor (human, UniProt P08069 31-1367). As to the kind of experiment: cell-based or functional assay.
Test [3] deals with T2, human IGF-1 receptor. As to the kind of experiment: SPA competition, [125I]-IGF-1, IGF-1R membranes. As to the method:
as §1

Test [4] has as its target T1, human insulin receptor. As to the kind of experiment: cell-based or functional assay.

B1: IGF1 A:B(Y^B16L^B17)(p-NH2-F)^A19amide (ligand)
chain 1: GIVDECCFRSCDLRRLEM[Phe(4-NH2)]CA
chain 2: GPETLCGAELVDALYLVCGDRGFYFNKPT-NH2
modifications: disulfide (positions not given here); not fully specified (bridges); also: C-terminal amide, chain not given here
In test [1], B1 displayed an IC50 of 0.00108 µM.

B2: IGF-1 A (H8 A9 N21): B (H5D10Y16L17 A22) DPI A-COOH (ligand)
chain 1: GIVDECCHASCDLRRLEMYCN-OH
chain 2: GPEHLCGADLVDALYLVCGDAGFY
modifications: not fully specified (C-terminus); ends and bridges not checked
B2: the “% IGF” value in test [2] was found to be 7.7%. In test [3], the “% IGF-1 (in test)” value is 2.3%, the IC50 was 0.0228 µM and the “activity (0.55 nM)” value came out at 2.4%.

B3: IGF-1 A: B (H5D10Y16L17) DPI (ligand)
chain 1: GIVDECCFRSCDLRRLEMYCA-NH2
chain 2: GPEHLCGADLVDALYLVCGDRGFY-NH2
modifications: disulfide I:6-I:11, I:20-II:18, I:7-II:6; ends not checked
In the case of B3, in test [2], the “% IGF” value amounted to 7.1%. Further, the “activity (0.55 nM)” value in test [3] worked out at 11.8%.

B4: IGF-1 A (H8 A9 N21): B(H5D10Y16L17) DPI A-COOH (ligand)
chain 1: GIVDECCHASCDLRRLEMYCN-OH
chain 2: GPEHLCGADLVDALYLVCGDRGFY-NH2
modifications: disulfide I:6-I:11, I:20-II:18, I:7-II:6; ends not checked
B4: the “% IGF” value in test [2] is 181%. Further, the “activity (0.55 nM)” value in test [3] turned out to be 13.6%.

B5: IGF-1 A: B (D10Y16L17) DPI A-COOH (ligand)
chain 1: GIVDECCFRSCDLRRLEMYCA-OH
chain 2: GPETLCGADLVDALYLVCGDRGFY-NH2
modifications: disulfide I:6-I:11, I:20-II:18, I:7-II:6; ends not checked
Take B5: in test [2], the “% IGF” value amounted to 112%. Moreover, the “% Insulin” value in test [4] turned out to be 1580%. Further, in test [3], the “activity (0.55 nM)” value was 8.1%.

B6: IGF-1 A: IGF-1 B (1-8)-In (9-17)-IGF-1 B (18-30) (ligand)
chain 1: GIVDECCFRSCDLRRLEMYCA-NH2
chain 2: GPETLCGSHLVEALYLVCGDRGFYFNKPT-NH2
modifications: disulfide I:6-I:11, I:20-II:18, I:7-II:6; ends not checked
B6: the “activity (0.55 nM)” value in test [3] came out at 0.4%.

B7: IGF-1 A: B (E10Y16L17)-E31E32 B-COOH (ligand)
chain 1: GIVDECCFRSCDLRRLEMYCA-NH2
chain 2: GPETLCGAELVDALYLVCGDRGFYFNKPTEE-OH
modifications: disulfide I:6-I:11, I:20-II:18, I:7-II:6; ends not checked
Take B7: the “activity (0.55 nM)” value in test [3] was 3.1%.

B8: IGF-1 A: In (1-17)-IGF-1 B (18-30) (ligand)
chain 1: GIVDECCFRSCDLRRLEMYCA-NH2
chain 2: FVNQHLCGSHLVEALYLVCGDRGFYFNKPT-NH2
modifications: disulfide I:6-I:11, I:20-II:19, I:7-II:7; ends not checked
For the molecule B8, in test [3], the “activity (0.55 nM)” value worked out at 0.9%.

B9: IGF-1 A: In B (1-5)-IGF-1 B (YL) (6-30) (ligand)
A chain: GIVDECCFRSCDLRRLEMYCA-NH2
B chain: FVNQHLCGAELVDALYLVCGDRGFYFNKPT-NH2
modifications: disulfide I:6-I:11, I:20-II:19, I:7-II:7; not fully specified
For the molecule B9, the “activity (0.55 nM)” value in test [3] worked out at 2%.

B10: IGF-1 A: B (E10Y16L17) DPI (ligand)
A chain: GIVDECCFRSCDLRRLEMYCA-NH2
B chain: GPETLCGAELVDALYLVCGDRGFY-NH2
modifications: disulfide I:6-I:11, I:20-II:18, I:7-II:6; not fully specified
B10: the “activity (0.55 nM)” value in test [3] came to 2.4%.
